The text below walks through data of publication PMC9127186, “Molecular Basis Underlying Hepatobiliary and Renal Excretion of Phenolic Acids of Salvia miltiorrhiza Roots (Danshen)” (Frontiers in Pharmacology, 2022).

One data set has as its target T1, rat Pept1 (Rattus norvegicus, UniProt P51574).
T1 sequence (P51574 1-710): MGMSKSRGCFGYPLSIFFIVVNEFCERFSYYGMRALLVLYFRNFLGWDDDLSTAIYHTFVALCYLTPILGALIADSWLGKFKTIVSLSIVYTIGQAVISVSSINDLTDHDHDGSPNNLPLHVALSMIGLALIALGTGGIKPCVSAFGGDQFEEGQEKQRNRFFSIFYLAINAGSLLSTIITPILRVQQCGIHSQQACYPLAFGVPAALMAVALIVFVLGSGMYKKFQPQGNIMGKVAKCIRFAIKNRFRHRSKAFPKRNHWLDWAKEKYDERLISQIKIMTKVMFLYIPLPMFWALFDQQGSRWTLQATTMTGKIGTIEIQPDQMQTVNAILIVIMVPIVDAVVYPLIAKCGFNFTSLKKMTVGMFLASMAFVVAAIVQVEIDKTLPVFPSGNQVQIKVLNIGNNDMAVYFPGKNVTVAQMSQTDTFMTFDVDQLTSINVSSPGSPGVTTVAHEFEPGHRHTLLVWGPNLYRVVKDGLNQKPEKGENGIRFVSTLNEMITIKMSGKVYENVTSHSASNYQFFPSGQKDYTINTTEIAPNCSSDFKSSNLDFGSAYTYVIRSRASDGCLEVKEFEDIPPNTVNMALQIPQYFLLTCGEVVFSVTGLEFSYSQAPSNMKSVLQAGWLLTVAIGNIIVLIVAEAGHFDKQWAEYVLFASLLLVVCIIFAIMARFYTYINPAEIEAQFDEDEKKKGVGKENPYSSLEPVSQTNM
The data set can be described thus: Cellular transport assay, HEK-293 cells expressing rat Pept1. The conditions noted are these: positive substrate 20 μM, 10 min; rat Pept1.

The target of a further data set is T2, human PEPT2 (Homo sapiens, UniProt Q16348).
T2 sequence (Q16348 1-729): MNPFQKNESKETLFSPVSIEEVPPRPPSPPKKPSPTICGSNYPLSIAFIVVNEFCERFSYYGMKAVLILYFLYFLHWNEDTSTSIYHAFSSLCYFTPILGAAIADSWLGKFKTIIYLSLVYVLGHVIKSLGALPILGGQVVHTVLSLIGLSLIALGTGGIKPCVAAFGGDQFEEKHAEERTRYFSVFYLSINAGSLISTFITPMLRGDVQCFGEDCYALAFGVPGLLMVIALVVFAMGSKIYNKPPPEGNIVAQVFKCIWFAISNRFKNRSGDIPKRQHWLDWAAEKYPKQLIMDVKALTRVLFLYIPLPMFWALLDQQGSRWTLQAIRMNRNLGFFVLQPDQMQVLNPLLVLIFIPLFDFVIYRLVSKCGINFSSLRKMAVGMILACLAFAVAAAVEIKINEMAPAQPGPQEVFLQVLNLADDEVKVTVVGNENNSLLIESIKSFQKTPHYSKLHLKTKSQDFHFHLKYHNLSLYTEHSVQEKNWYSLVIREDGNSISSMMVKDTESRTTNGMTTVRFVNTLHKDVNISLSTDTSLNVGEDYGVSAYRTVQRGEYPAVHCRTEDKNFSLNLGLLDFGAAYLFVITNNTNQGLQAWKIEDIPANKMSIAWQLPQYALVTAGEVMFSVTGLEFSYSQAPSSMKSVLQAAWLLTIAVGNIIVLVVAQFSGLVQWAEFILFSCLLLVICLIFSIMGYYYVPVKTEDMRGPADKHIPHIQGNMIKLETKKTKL
The data set can be described thus: Cellular transport assay, HEK-293 cells expressing human PEPT2. The conditions noted are these: positive substrate 20 μM, 10 min; human PEPT2.

A further data set deals with T3, human PEPT1 (Homo sapiens, UniProt P46059).
T3 sequence (P46059 1-708): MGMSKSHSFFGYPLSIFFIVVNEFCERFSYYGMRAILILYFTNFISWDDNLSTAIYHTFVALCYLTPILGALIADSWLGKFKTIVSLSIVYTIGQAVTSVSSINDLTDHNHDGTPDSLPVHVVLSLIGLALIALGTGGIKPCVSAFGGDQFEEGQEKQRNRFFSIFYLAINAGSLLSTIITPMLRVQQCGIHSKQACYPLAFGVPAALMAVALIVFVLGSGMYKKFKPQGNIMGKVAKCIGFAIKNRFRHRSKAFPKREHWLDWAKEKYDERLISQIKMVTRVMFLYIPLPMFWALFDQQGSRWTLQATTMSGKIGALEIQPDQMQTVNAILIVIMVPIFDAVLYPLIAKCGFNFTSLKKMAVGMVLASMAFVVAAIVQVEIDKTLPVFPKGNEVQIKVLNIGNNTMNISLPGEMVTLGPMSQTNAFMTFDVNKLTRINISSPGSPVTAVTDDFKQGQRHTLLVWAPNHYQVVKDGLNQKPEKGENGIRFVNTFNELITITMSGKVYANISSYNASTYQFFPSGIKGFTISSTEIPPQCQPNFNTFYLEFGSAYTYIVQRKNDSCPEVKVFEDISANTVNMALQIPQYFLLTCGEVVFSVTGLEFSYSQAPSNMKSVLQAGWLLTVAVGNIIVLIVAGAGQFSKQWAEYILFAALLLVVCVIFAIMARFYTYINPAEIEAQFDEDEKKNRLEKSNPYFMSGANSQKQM
The data set can be described thus: Cellular transport assay, HEK-293 cells expressing human PEPT1. Conditions: positive substrate 20 μM, 10 min; human transporter printed PEPE1.

For the next data set, the target named is T4, rat Pept2 (Rattus norvegicus, UniProt Q63424).
T4 sequence (Q63424 1-729): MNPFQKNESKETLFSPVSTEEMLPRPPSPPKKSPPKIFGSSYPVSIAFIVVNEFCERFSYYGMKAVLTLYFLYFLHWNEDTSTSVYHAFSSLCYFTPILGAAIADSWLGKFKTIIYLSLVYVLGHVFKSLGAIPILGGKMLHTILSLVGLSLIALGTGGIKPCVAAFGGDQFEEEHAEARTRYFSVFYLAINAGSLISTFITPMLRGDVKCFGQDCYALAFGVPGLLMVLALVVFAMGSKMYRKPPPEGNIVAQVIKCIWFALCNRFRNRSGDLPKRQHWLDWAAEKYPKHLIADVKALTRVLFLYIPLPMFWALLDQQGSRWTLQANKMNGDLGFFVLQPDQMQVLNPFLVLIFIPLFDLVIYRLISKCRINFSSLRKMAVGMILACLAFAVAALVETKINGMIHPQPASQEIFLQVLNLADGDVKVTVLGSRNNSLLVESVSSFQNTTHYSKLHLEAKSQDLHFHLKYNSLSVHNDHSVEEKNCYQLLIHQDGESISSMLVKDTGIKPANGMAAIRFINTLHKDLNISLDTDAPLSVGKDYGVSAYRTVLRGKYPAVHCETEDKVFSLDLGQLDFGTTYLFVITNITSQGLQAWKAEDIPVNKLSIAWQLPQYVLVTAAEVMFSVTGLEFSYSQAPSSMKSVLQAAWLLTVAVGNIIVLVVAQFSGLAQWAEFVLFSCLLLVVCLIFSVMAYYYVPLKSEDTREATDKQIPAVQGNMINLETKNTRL
The data set can be described thus: Cellular transport assay, HEK-293 cells expressing rat Pept2. Conditions: positive substrate 20 μM, 10 min; rat Pept2.

Substrate in data set [1]: O=C(/C=C/c1ccc(O)c(O)c1/C=C/c1ccc(O)c(O)c1)O[C@H](Cc1ccc(O)c(O)c1)C(=O)O
The data set can be described thus: cells, lysate or membranes named. Conditions: other: rat hepatic sinusoidal uptake Oatp1b2; 5 min incubation, concentrations in Table 1; 37.0 °C.

Substrate in data set [2]: O=C(/C=C/c1ccc(O)c2c1[C@H](C(=O)O)[C@@H](c1ccc(O)c(O)c1)O2)O[C@H](Cc1ccc(O)c(O)c1)C(=O)O
The data set is described as follows: cells, lysate or membranes named. Conditions: 5 min incubation, concentrations in Table 1, 37.0 °C.

Substrate in data set [3]: O=C(O)Cc1c(/C=C/C(=O)OC(Cc2ccc(O)c(O)c2)C(=O)O)ccc(O)c1O
The data set can be described thus: cells, lysate or membranes named. The conditions noted are these: 5 min incubation, concentrations in Table 1, 37.0 °C.

Substrate in data set [4]: O=C(/C=C/c1ccc(O)c(O)c1)O[C@H](Cc1ccc(O)c(O)c1)C(=O)O
The data set is described as follows: cells, lysate or membranes named. Conditions: 5 min incubation, concentrations in Table 1, 37.0 °C.

The mark [5] stands for this setting: other: rat hepatic sinusoidal uptake Oatp1b2.
The mark [6] stands for this setting: other: human hepatic sinusoidal uptake OATP1B1.

Where a SMILES comes first, the peptide text is derived from it. [ ]: non-standard residue; d: D form. Sar = CNCC(=O)O

`CN(CC(=O)O)C(=O)CN` [GS, glycylsarcosine, reference compound] (H-Gly-[Sar]-OH): the “TransportTC/TransportMC ratio, positive substrate” value on rat Pept1 is listed as 90.1 ± 10.4 (GS); at human PEPT2 it was 360 ± 49 (GS); on human PEPT1, 126 ± 31 (GS); at rat Pept2, 101 ± 19 (GS).

B1: rat Oatp1b2 (Rattus norvegicus) (protein)
chain: MDHTQQSRKAAEAQPSRSKQTRFCDGFKLFLAALSFSYICKALGGVVMKSSITQIERRFDIPSSISGLIDGGFEIGNLLVIVFVSYFGSKLHRPKLIGIGCFIMGIGSILTALPHFFMGYYKYAKENDIGSLGNSTLTCFINQMTSPTGPSPEIVEKGCEKGLKSHMWIYVLMGNMLRGIGETPIVPLGISYLDDFAKEGHTSMHLGTLHTIAMIGPILGFIMSSVFAKIYVDVGYVDLNSVRITPNDARWVGAWWLSFIVNGLLCITSSIPFFFLPKIPKRSQEERKNSVSLHAPKTDEEKKHMTNLTKQEEQDPSNMTGFLRSLRSILTNEIYVIFLILTLLQVSGFIGSFTYLFKFIEQQFGRTASQANFLLGIITIPTMATAMFLGGYIVKKFKLTSVGIAKFVFFTSSVAYAFQFLYFPLLCENKPFAGLTLTYDGMNPVDSHIDVPLSYCNSDCSCDKNQWEPICGENGVTYISPCLAGCKSFRGDKKPNNTEFYDCSCISNSGNNSAHLGECPRYKCKTNYYFYIILQVTVSFFTAMGSPSLILILMKSVQPELKSLAMGFHSLIIRALGGILAPIYYGAFIDRTCIKWSVTSCGKRGACRLYNSRLFGFSYLGLNLALKTPPLFLYVVLIYFTKRKYKRNDNKTLENGRQFTDEGNPDSVNKNGYYCVPYDEQSNETPL
Consider B1, for which the Vmax (as a rule, the rate approached at saturating substrate) came to 1.92e-05 µmol/min/mg in data set [1], 3.77e-05 µmol/min/mg in data set [2] (setting [5]), 0.000572 µmol/min/mg in data set [3] (setting [5]) and 0.000159 µmol/min/mg in data set [4] (setting [5]). For the same molecule, the Vmax/Km amounted to 0.38 µL/min/mg in data set [1], 0.41 µL/min/mg in data set [2] (setting [5]), 1.23 µL/min/mg in data set [3] (setting [5]) and 0.08 µL/min/mg in data set [4] (setting [5]).

B2: human OATP1B1 (Homo sapiens) (protein)
chain: MDQNQHLNKTAEAQPSENKKTRYCNGLKMFLAALSLSFIAKTLGAIIMKSSIIHIERRFEISSSLVGFIDGSFEIGNLLVIVFVSYFGSKLHRPKLIGIGCFIMGIGGVLTALPHFFMGYYRYSKETNINSSENSTSTLSTCLINQILSLNRASPEIVGKGCLKESGSYMWIYVFMGNMLRGIGETPIVPLGLSYIDDFAKEGHSSLYLGILNAIAMIGPIIGFTLGSLFSKMYVDIGYVDLSTIRITPTDSRWVGAWWLNFLVSGLFSIISSIPFFFLPQTPNKPQKERKASLSLHVLETNDEKDQTANLTNQGKNITKNVTGFFQSFKSILTNPLYVMFVLLTLLQVSSYIGAFTYVFKYVEQQYGQPSSKANILLGVITIPIFASGMFLGGYIIKKFKLNTVGIAKFSCFTAVMSLSFYLLYFFILCENKSVAGLTMTYDGNNPVTSHRDVPLSYCNSDCNCDESQWEPVCGNNGITYISPCLAGCKSSSGNKKPIVFYNCSCLEVTGLQNRNYSAHLGECPRDDACTRKFYFFVAIQVLNLFFSALGGTSHVMLIVKIVQPELKSLALGFHSMVIRALGGILAPIYFGALIDTTCIKWSTNNCGTRGSCRTYNSTSFSRVYLGLSSMLRVSSLVLYIILIYAMKKKYQEKDINASENGSVMDEANLESLNKNKHFVPSAGADSETHC
Consider B2, for which the figures for the maximum rate (Vmax) in data set [2] (setting [6]), in data set [3] (setting [6]) and in data set [4] (setting [6]) were 2.7e-05 µmol/min/mg, 8.93e-05 µmol/min/mg and 9.81e-05 µmol/min/mg, respectively. Besides, the Vmax/Km in data set [2] (setting [6]) is 0.06 µL/min/mg; in data set [3] (setting [6]) it was 0.22 µL/min/mg; in data set [4] (setting [6]), 0.07 µL/min/mg.
